Results reported in PMC9828230.

Experiments:
Assay in all cases: SPR; Biacore X100; biotinylated histone 3 peptides immobilised on a Biotin CAPture chip (about 10 RU); PHD finger flowed at 10 μl/min, 0.39-400 μM; 300 mM NaCl, 10 mM Tris pH 8, 0.05% Tween 20, 0.1 mM TCEP; equilibrium binding isotherm model
[1] = molecular target: histone 3 peptide trimethylated at lysine 4 (H3K4me3)
[2] = molecular target: histone 3 peptide dimethylated at lysine 4 (H3K4me2)
[3] = molecular target: histone 3 peptide monomethylated at lysine 4 (H3K4me1)

Substance: MtING1PHD, PHD finger of Medicago ING1 (M180-K247) (domain or fragment)
- Kd [1]: 31 µM
- Kd [2]: 54.5 µM
- Kd [3]: 126 µM
